Measurements: patent US20110065645A1, “Compositions and Methods for Modulating Neuron Degeneration and Neuron Guidance” (The Regents of the University of California, priority 2009, published 2011)
“Also recorded” adds a separate entry of the source. Values belong to the molecule of their own block, whether it stands above or below them.

Experiments:
[1] = target: Fzd3-EGFP (mouse) (UniProt Q61086); experiment: cell-based or functional assay
[2] = tested on: PKA; experiment: Western blot of activated phospho-PKA (Thr197) in dissociated commissural neurons; type: cell-based, rat; details: Shh-N 2.5 μg/ml for one hour; KT5720 25 μM for 15 minutes
Experimental: To confirm that PKA activity can be reduced in commissural neurons exposed to Shh, we treated dissociated spinal cord commissural neurons with Shh and analyzed the level of activated PKA. 24 hr after plating, commissural neurons were serum starved overnight and then treated with 2.5 μg/ml (150 nM) of Shh-N recombinant protein (R&D) for one hour prior to lysate collection. Forskolin (25 μM), and the PKA inhibitor, KT5720 (25 μM) were added to the commissural neuron culture as controls for 15 minutes before lysis. We then tested these lysates for levels of activated PKA with an antibody that specifically recognizes an activated form of the catalytic domain of PKA (phosphorylated at Thr197).
Dissociated commissural neuronal culture. Spinal cords were isolated from rat E13 embryos and commissural neurons were dissociated as previously described.^(8) In brief, embryos were treated with Dispase I (0.25 mg/ml; D4818, Sigma) for 5 minutes prior isolation of spinal cords, followed by collection of spinal cord dorsal domains by microdissection and incubation with Trypsin (1 mg/ml; T47-99, Sigma) for 10-12 min in a 37° C. water bath. The tissue was then triturated with flamed glass pipettes and a single cell suspension was plated on poly-D-lysine (PDL; 20 μg/ml) and laminin (10 μg/ml) coated coverslips or 12 well plates (Corning). More than 90% cells in these cultures express TAG-1, a marker for spinal cord commissural neurons (FIG. 35B). 10^5 dissociated cells were plated on PDL/laminin coated coverslips and cultured for 24 hrs before processed for immunohistochemistry as described above. For Western blot analysis, 10^6 dissociated cells were plated on PDL/laminin coated 12-well tissue culture plates and cultured initially for 24 hrs in dorsal explant media (replenished daily) then changed to low serum medium overnight prior to treatments. […]

[3] = target: Fzd3-mCherry (mouse) (UniProt Q61086); experiment: cell-based or functional assay
Fzd3-mCherry (mouse), sequence (Q61086 23-666): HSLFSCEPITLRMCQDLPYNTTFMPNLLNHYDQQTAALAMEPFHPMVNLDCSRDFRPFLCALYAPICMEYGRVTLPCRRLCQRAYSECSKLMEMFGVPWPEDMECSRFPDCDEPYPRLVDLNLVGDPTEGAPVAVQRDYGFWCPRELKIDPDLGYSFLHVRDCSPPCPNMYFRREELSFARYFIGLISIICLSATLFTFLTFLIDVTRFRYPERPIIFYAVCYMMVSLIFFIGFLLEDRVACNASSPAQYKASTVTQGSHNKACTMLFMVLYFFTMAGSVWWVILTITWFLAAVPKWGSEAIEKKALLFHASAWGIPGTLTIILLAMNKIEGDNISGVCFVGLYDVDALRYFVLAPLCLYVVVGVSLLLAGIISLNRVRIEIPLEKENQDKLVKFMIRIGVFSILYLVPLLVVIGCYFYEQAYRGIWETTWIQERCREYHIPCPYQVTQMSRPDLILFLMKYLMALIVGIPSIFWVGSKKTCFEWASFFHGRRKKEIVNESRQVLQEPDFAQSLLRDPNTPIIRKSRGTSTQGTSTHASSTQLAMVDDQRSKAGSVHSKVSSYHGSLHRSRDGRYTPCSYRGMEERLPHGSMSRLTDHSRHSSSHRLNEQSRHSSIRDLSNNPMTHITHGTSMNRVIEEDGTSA

[4] = tested on: pre-crossing commissural axons; experiment: Precrossing commissural explant assay in collagen gel; type: cell-based, rat; details: collagen gel containing Netrin-1 and Shh expressing COS-7 cells
From the text: Shh activates Semaphorin repulsion in commissural axons. We investigated the mechanisms by which Semaphorin repulsion in commissural axons is switched on during spinal cord midline pathfinding. Commissural neuron cell bodies are located in the dorsal spinal cord and initially extend axons to the ventral midline, the floor plate, in the process of several days (from late E8.9/early E9.5 in mouse and late E10 and E11 in rats till at least E12.5 in mouse and E14 in rat). The commissural axons in the rostral (anterior) spinal cord differentiate and their axons develop earlier than their caudal (posterior) counterparts. At each axis level, the more dorsal populations tend to differentiate and extend axons later than the ventral population in the dorsal spinal cord during this stage of development. […] To quantify these effects, the total length of axons extending towards (proximal) or away (distal) from cell aggregates (FIG. 31B) was calculated in each experiment as the ratio of axons growing proximally (P) divided by axons growing distally (D) (FIG. 31i). […]
Precrossing commissural explant assay. […] For quantification the total length of axon bundle was measured in the proximal (P) and distal (D) quadrants as depicted in FIG. 31B. […]

[5] = tested on: TH axons; experiment: mdDA explant assay with Wnt-expressing cell clumps, anti-TH staining; type: cell-based; details: embryonic mdDA explants from ventral midbrain
From the text: FIG. 7. Multiple Wnts attract TH axons in explant assays. FIG. 7 depicts histogram showing that embryonic mdDA explants dissected out from the ventral midbrain and cultured with cell clumps expressing various Wnts.
3c: Use of explant assays to test the effects of Wnts on mdDA and 5-HT axon growth and guidance. To directly address whether Wnts regulate the guidance of these monoaminergic axons, we use explant assays to test the function of the identified Wnts and determine whether they are attractive or repulsive. […] We plan to continue test additional Wnts especially those which are expressed in the brainstem and the forebrain targets using the same assay.

[6] = tested on: β-catenin; experiment: β-catenin immunostaining in commissural axon growth cones; type: cell-based; details: bath application; LiCl 2 mM
From the text: To understand how atypical PKC/Par pathway regulates axon guidance, we set out to determine the subcellular localization of aPKC, their substrates and downstream cellular effectors. […] Thus, our high-resolution confocal imaging detects a tendency of β-catenin being concentrated to one side of the growth cone (FIG. 9A). It is possible that there is low level of Wnt proteins in the culture (many neurons express Wnts). […] Therefore, it is also possible that intrinsic aPKC signaling can create chirality within the growth cone with out extrinsic signals. Such intrinsic polarity may then robustly regulate cellular morphology upon directional instructions from the environment such as a Wnt gradient. It is well known that GSK3β phosphorylates β-catenin, which then leads to proteosome-mediated degradation of β-catenin. And it is also known that GSK3β is phosphorylated and inhibited by PKCζ^(1,2). Therefore, inhibiting GSK3β or the proteosome activity generally should increase β-catenin level throughout the growth cone, canceling the asymmetry. […] We are now testing the hypothesis that Wnt proteins may locally activate PKCζ, which then inhibits GSK3β and locally stabilizes β-catenin, which is part of the asymmetric cellular mechanism leading to directional choice of a growth cone. We examine the localization of β-catenin in post-crossing commissural axon growth cones in the “post-crossing” assay and “open-book” assays.

Fzd3-EGFP (mouse), sequence (Q61086 23-666): as above

commissural axon length after 24 hours on Wnt5a-coated coverslips [1]: 36%
Molecule: recombinant Wnt5a (R&D Systems) (ligand)

Molecule: c1ccc2c(Oc3nc(Nc4ccc(N5CCOCC5)cc4)c4ncn(C5CCCCC5)c4n3)cccc2c1 [Purmorphamine, reference compound]
level of activated PKA [2]: reduce the level of activated PKA

Fzd3 level at the cell membrane (surface biotinylation, avidin IP, anti-mCherry IB) in HEK293T cells [3]: 3 fold
Molecule: Dvl1-EGFP (from UniProt P51141 1-695)

Molecule: Shh-N: recombinant mouse Sonic Hedgehog, amino-terminal peptide (R&D); also secreted by transfected COS-7 cells
level of activated PKA [2]: reduce the level of activated PKA; also recorded: significant reduction of activated PKA
response of pre-crossing commissural axons to Semaphorins [4]: repelled by Sema3B- and Sema3F-secreting cell clumps

B1: Wnt7b: Wnt family protein expressed by cell clumps in the TH axon explant assay (protein, UniProt P56706 25-349, looked up)
Protein Wnt-7b: ALSSVVALGANIICNKIPGLAPRQRAICQSRPDAIIVIGEGAQMGINECQYQFRFGRWNCSALGEKTVFGQELRVGSREAAFTYAITAAGVAHAVTAACSQGNLSNCGCDREKQGYYNQAEGWKWGGCSADVRYGIDFSRRFVDAREIKKNARRLMNLHNNEAGRKVLEDRMQLECKCHGVSGSCTTKTCWTTLPKFREVGHLLKEKYNAAVQVEVVRASRLRQPTFLRIKQLRSYQKPMETDLVYIEKSPNYCEEDAATGSVGTQGRLCNRTSPGADGCDTMCCGRGYNTHQYTKVWQCNCKFHWCCFVKCNTCSERTEVFTCK
attraction of TH axons [5]: attracts the TH-positive neuron axons

B2: Wnt3a: purified Wnt3a protein; also expressed by cell clumps in explant assays (protein, UniProt P56704 19-352, looked up)
Protein Wnt-3a: SYPIWWSLAVGPQYSSLGSQPILCASIPGLVPKQLRFCRNYVEIMPSVAEGIKIGIQECQHQFRGRRWNCTTVHDSLAIFGPVLDKATRESAFVHAIASAGVAFAVTRSCAEGTAAICGCSSRHQGSPGKGWKWGGCSEDIEFGGMVSREFADARENRPDARSAMNRHNNEAGRQAIASHMHLKCKCHGLSGSCEVKTCWWSQPDFRAIGDFLKDKYDSASEMVVEKHRESRGWVETLRPRYTYFKVPTERDLVYYEASPNFCEPNPETGSFGTRDRTCNVSSHGIDGCDLLCCGRGHNARAERRREKCRCVFHWCCYVSCQECTRVYDVHTCK
attraction of TH axons [5]: strongest effect
β-catenin level and asymmetry in the growth cone [6]: increased the levels of β-catenin throughout the growth cone
